Here are results for two molecules from article PMC10454150, “Molecular Mechanism of a FRET Biosensor for the Cardiac Ryanodine Receptor Pathologically Leaky State” (International Journal of Molecular Sciences, 2023).

For assay [1], the target named is type 2 ryanodine receptor (RyR2) channel in cardiac SR membranes (pig (endogenous in porcine heart SR)). Nature of the assay: FRET or BRET; as a1 but 300 uM Ca2+, no DPc10.
Assay [2] shares this target. Nature of the assay: FRET or BRET; as a1, 30 nM Ca2+, SR pre-treated with 50 uM unlabeled DPc10 for 60 min; apparent affinity. Background: BRET reads energy transfer from a luciferase to a nearby fluorophore.
The target of assay [3] is T1, type 2 ryanodine receptor (RyR2) channel in cardiac SR membranes (pig (endogenous in porcine heart SR), UniProt A0A5G2R1W3 1-4900).
T1 construct: type 2 ryanodine receptor (RyR2), pig heart; homotetrameric assembly of 565-kDa protomers; 'intact RyR2 in cardiac SR vesicles'; In every assay RyR2 stood in native SR membranes and was preloaded with a donor-labelled FKBP12.6 (D-FKBP); also called cardiac ryanodine receptor; source: endogenous, SR vesicles isolated by differential ultracentrifugation of porcine ventricular tissue; residual …
Nature of the assay: FRET or BRET; FRET from D-FKBP (labelled position not stated for this experiment) on RyR2 in cardiac SR to A-DPc10 (QXL520), series of [A-DPc10]; 30 nM Ca2+, no CaM; Hill fit. The settings on record: one partner purified.

Assay [4] addresses T1, type 2 ryanodine receptor (RyR2) …. Nature of the assay: FRET or BRET; as a6, 30 nM Ca2+, pre-incubated 40 min with unlabeled CaM (1 uM by the legend, 30 uM by the text); apparent affinity; Hill fit. The settings on record: one partner purified.
Assay [5] has the same target. Nature of the assay: FRET or BRET; as a6 but 300 uM Ca2+, no CaM; Hill fit. The settings on record: one partner purified.
For assay [6] the target is unchanged. Nature of the assay: FRET or BRET; FRET from D-49-FKBP on RyR2 in cardiac SR to A-DPc10, series of [A-DPc10]; Ca2+ not stated for this experiment; Hill fit. The settings on record: one partner purified.
Assay [7] shares this target. Nature of the assay: FRET or BRET; FRET from D-FKBP (labelled position not stated for this experiment) on RyR2 in cardiac SR to A-DPc10 (QXL520), series of [A-DPc10]; 30 nM Ca2+, no CaM; Hill fit. The note with it: one partner purified. This is another data set of the same source.
Assay [8] shares this target. Nature of the assay: FRET or BRET; FRET from D-85-FKBP on RyR2 in cardiac SR to A-DPc10, series of [A-DPc10]; Ca2+ not stated for this experiment; Hill fit. The settings on record: one partner purified.
For assay [9] the target is unchanged. Nature of the assay: FRET or BRET; FRET from D-14-FKBP on RyR2 in cardiac SR to A-DPc10, series of [A-DPc10]; Ca2+ not stated for this experiment; Hill fit. The note with it: one partner purified.
Assay [10] has the same target. Nature of the assay: FRET or BRET; FRET from D-32-FKBP (loss-of-inhibition variant) on RyR2 in cardiac SR to A-DPc10, series of [A-DPc10]; Ca2+ not stated for this experiment; Hill fit. The settings on record: one partner purified.
The target is the same in assay [11]. Nature of the assay: FRET or BRET; as a6 but 300 uM Ca2+, pre-incubated 40 min with unlabeled CaM (1 uM by the legend, 30 uM by the text); apparent affinity; Hill fit. The settings on record: one partner purified.

Ends that are not written are not given here. QXL520 = non-fluorescent dark acceptor (quencher) probe

The molecule “acceptor-labeled calmodulin (A-CaM), Alexa Fluor 555 at a cysteine substituted at position 34 (natural protein)” registered a fold higher affinity in 300 uM Ca2+ against 30 nM Ca2+ in assay [1] of 2.7 fold. Besides, the fold decrease of apparent affinity with 50 uM DPc10 against no DPc10 in [2] is 4 fold.

B1: acceptor-labeled DPc10 (A-DPc10), QXL520 at the N-terminus (peptide)
peptide: QXL520-GFCPDHKAAMVLFLDRVYGIEVQDFLLHLLEVGFLP
notes: also called acceptor-DPc10; source: synthetic peptide (AnaSpec)
For the molecule B1, the Kd in assay [3] was found to be 10.4 µM; in assay [4] it was 14.6 µM; in assay [5] it was 13.2 µM; in assay [6], 9.9 µM; in assay [7], 10.3 µM; in assay [8], 10.4 µM. For the same molecule, the results for the Kd in [9], in assay [10] and in [11] were 10 µM, 13.1 µM and 33.9 µM, respectively.
